The assay deals with T1, His-REV7 (human, UniProt Q9UI95 1-211).
T1 construct: REV7 (MAD2L2), human; amplified from REV7 cDNA with primers from the start codon to the stop codon, cloned into pETDuet-1; Cloned into pETDuet-1 (SalI-NotI); also called His-REV7 fusion protein; source: E. coli, purified
The experiment in a line: pull-down; GST-fusion REV3L fragment, His-REV7 and Glutathione-Sepharose 4B beads, 4°C for 4 h in 500 μl of 0.1B; blot with anti-His and anti-GST. The following applies: both partners purified.

T1 sequence (Q9UI95 whole entry, the tested form may be a part): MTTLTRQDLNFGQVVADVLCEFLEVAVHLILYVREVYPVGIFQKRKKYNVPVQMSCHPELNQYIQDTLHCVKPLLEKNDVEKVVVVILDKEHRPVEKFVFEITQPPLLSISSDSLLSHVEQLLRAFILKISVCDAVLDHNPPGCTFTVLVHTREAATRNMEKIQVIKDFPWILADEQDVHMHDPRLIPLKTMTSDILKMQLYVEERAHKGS

B1: GST-REV3L 1974–2025 (domain or fragment, human, UniProt O60673 1974-2025, looked up)
chain: GVVNKGSSNSPKMVEDKKIVIMPCKCAPSRQLVQVWLQAKEEYERSKKLPKT
notes: Cloned into pGEX6P-1 (GE Healthcare); source: E. coli, purified
As for B1, the binding result is “binds”.

B2: GST-REV3L 1847–1898 (domain or fragment, human, UniProt O60673 1847-1898, looked up)
chain: MLTPTPDSSPRSTSSPSQSKNGSFTPRTANILKPLMSPPSREEIMATLLDHD
notes: Cloned into pGEX6P-1 (GE Healthcare); also called positive control; source: E. coli, purified
As to B2, the binding result is “binds”.

Values taken from paper PMC4333420, “REV7 is essential for DNA damage tolerance via two REV3L binding sites in mammalian DNA polymerase ζ” (Nucleic Acids Research, 2015).
